Experimental data: PMC6804253, “Predicting and Experimentally Validating Hot-Spot Residues at Protein–Protein Interfaces” (ACS Chemical Biology, 2019)
Where a chain is given by its changes, count along the chain named.

B1: 1A4Y EA401A (protein, UniProt P13489 2-461, looked up, variant E401A)
Ribonuclease inhibitor: SLDIQSLDIQCEELSDARWAELLPLLQQCQVVRLDDCGLTEARCKDISSALRVNPALAELNLRSNELGDVGVHCVLQGLQTPSCKIQKLSLQNCCLTGAGCGVLSSTLRTLPTLQELHLSDNLLGDAGLQLLCEGLLDPQCRLEKLQLEYCSLSAASCEPLASVLRAKPDFKELTVSNNDINEAGVRVLCQGLKDSPCQLEALKLESCGVTSDNCRDLCGIVASKASLRELALGSNKLGDVGMAELCPGLLHPSSRLRTLWIWECGITAKGCGDLCRVLRAKESLKELSLAGNELGDEGARLLCETLLEPGCQLESLWVKSCSFTAACCSHFSSVLAQNRFLLELQISNNRLEDAGVRELCQGLGQPGSVLRVLWLADCDVSDSSCSSLAATLLANHSLRALDLSNNCLGDAGILQLVESVRQPGCLLEQLVLYDIYWSEEMEDRLQALEKDKPSLRVIS
B2: 1A4Y DA435A (protein, UniProt P13489 2-461, looked up, variant D435A)
Ribonuclease inhibitor: B1 Ribonuclease inhibitor with A401E, D435A
B3: 1AHW TC167A (protein, UniProt P13726 33-251, looked up, variant T167A)
extracellular domain: SGTTNTVAAYNLTWKSTNFKTILEWEPKPVNQVYTVQISTKSGDWKSKCFYTTDTECDLTDEIVKDVKQTYLARVFSYPAGNVESTGSAGEPLYENSPEFTPYLETNLGQPTIQSFEQVGTKVNVTVEDERTLVRRNNTFLSLRDVFGKDLIYTLYYWKSSSSGKKAAKTNTNEFLIDVDKGENYCFSVQAVIPSRTVNRKSTDSPVECMGQEKGEFRE
modifications: extracellular domain
B4: 1DAN NU107A (protein, UniProt P13726 33-251, looked up, variant N107A)
extracellular domain: B3 extracellular domain with N107A, A167T
modifications: extracellular domain
B5: 1DAN TT17A (protein, UniProt P13726 33-251, looked up, variant T17A)
extracellular domain: B3 extracellular domain with T17A, A167T
modifications: extracellular domain
B6: 1DAN TU139A (protein, UniProt P13726 33-251, looked up, variant T139A)
extracellular domain: B3 extracellular domain with T139A, A167T
modifications: extracellular domain
B7: 1DAN QU110A (protein, UniProt P13726 33-251, looked up, variant Q110A)
extracellular domain: B3 extracellular domain with Q110A, A167T
modifications: extracellular domain
B8: 1DAN ST42A (protein, UniProt P13726 33-251, looked up, variant S42A)
extracellular domain: B3 extracellular domain with S42A, A167T
modifications: extracellular domain
B9: 1DAN TT21A (protein, UniProt P13726 33-251, looked up, variant T21A)
extracellular domain: B3 extracellular domain with T21A, A167T
modifications: extracellular domain
B10: 1DAN TU172A (protein, UniProt P13726 33-251, looked up, variant T172A)
extracellular domain: B3 extracellular domain with A167T, T172A
modifications: extracellular domain
B11: 1DAN TU132A (protein, UniProt P13726 33-251, looked up, variant T132A)
extracellular domain: B3 extracellular domain with T132A, A167T
modifications: extracellular domain
B12: 1DAN TT52A (protein, UniProt P13726 33-251, looked up, variant T52A)
extracellular domain: B3 extracellular domain with T52A, A167T
modifications: extracellular domain
B13: 1DAN ST16A (protein, UniProt P13726 33-251, looked up, variant S16A)
extracellular domain: B3 extracellular domain with S16A, A167T
modifications: extracellular domain
B14: 1DAN SU163A (protein, UniProt P13726 33-251, looked up, variant S163A)
extracellular domain: B3 extracellular domain with S163A, A167T
modifications: extracellular domain
B15: 1DAN NT18A (protein, UniProt P13726 33-251, looked up, variant N18A)
extracellular domain: B3 extracellular domain with N18A, A167T
modifications: extracellular domain
B16: 1AHW NC199A (protein, UniProt P13726 33-251, looked up, variant N199A)
extracellular domain: B3 extracellular domain with A167T, N199A
modifications: extracellular domain
B17: 1AHW TC197A (protein, UniProt P13726 33-295, looked up, variant T197A)
Tissue factor: SGTTNTVAAYNLTWKSTNFKTILEWEPKPVNQVYTVQISTKSGDWKSKCFYTTDTECDLTDEIVKDVKQTYLARVFSYPAGNVESTGSAGEPLYENSPEFTPYLETNLGQPTIQSFEQVGTKVNVTVEDERTLVRRNNTFLSLRDVFGKDLIYTLYYWKSSSSGKKTAKTNTNEFLIDVDKGENYCFSVQAVIPSRAVNRKSTDSPVECMGQEKGEFREIFYIIGAVVFVVIILVIILAISLHKCRKAGVGQSWKENSPLNVS
B18: 1DAN TT60A (protein, UniProt P13726 33-295, looked up, variant T60A)
Tissue factor: B17 Tissue factor with T60A, A197T
B19: 1DAN ST47A (protein, UniProt P13726 33-295, looked up, variant S47A)
Tissue factor: B17 Tissue factor with S47A, A197T

test system: PPIs of the SKEMPI data set (by PDBID); assay: not given; details: single mutation to alanine; PPI given by PDBID; sheet sortedByGroup, r_group DERKH; ref SKEMPI; cited from earlier work

Question: Which “sk_ddG_kJ (SKEMPI experimental ΔΔG, mutation to alanine)” value does the source give for B1 here?
Answer: Its value is 3.60 kJ.

Question: For B2, which “sk_ddG_kJ (SKEMPI experimental ΔΔG, mutation to alanine)” value is on record?
Answer: Its value is 14.56 kJ.

same assay, conditions: single mutation to alanine; complex given by PDBID; residue group SQNT; ref SKEMPI; cited from earlier work

Question: With B3 as the molecule, how does the “sk_ddG_kJ (SKEMPI experimental ΔΔG)” value read?
Answer: The value was -0.29 kJ.

Question: For B4, which “sk_ddG_kJ (SKEMPI experimental ΔΔG)” value is on record?
Answer: Its value is 0.00 kJ.

Question: With B5 as the molecule, how does the “sk_ddG_kJ (SKEMPI experimental ΔΔG)” value read?
Answer: Its value is 0.50 kJ.

Question: With B6 as the molecule, how does the “sk_ddG_kJ (SKEMPI experimental ΔΔG)” value read?
Answer: Its value is -0.04 kJ.

Question: With B7 as the molecule, how does the “sk_ddG_kJ (SKEMPI experimental ΔΔG)” value read?
Answer: The value was 5.44 kJ.

Question: With B8 as the molecule, how does the “sk_ddG_kJ (SKEMPI experimental ΔΔG)” value read?
Answer: The value was -0.29 kJ.

Question: With B9 as the molecule, how does the “sk_ddG_kJ (SKEMPI experimental ΔΔG)” value read?
Answer: The value was -0.67 kJ.

Question: For B10, which “sk_ddG_kJ (SKEMPI experimental ΔΔG)” value is on record?
Answer: The value was -0.08 kJ.

Question: With B11 as the molecule, how does the “sk_ddG_kJ (SKEMPI experimental ΔΔG)” value read?
Answer: The value was 0.00 kJ.

Question: For B12, which “sk_ddG_kJ (SKEMPI experimental ΔΔG)” value is on record?
Answer: Its value is 1.67 kJ.

Question: For B13, which “sk_ddG_kJ (SKEMPI experimental ΔΔG)” value is on record?
Answer: Its value is -0.54 kJ.

Question: Which “sk_ddG_kJ (SKEMPI experimental ΔΔG)” value does the source give for B14 here?
Answer: The value was 0.08 kJ.

Question: Which “sk_ddG_kJ (SKEMPI experimental ΔΔG)” value does the source give for B15 here?
Answer: Its value is 0.75 kJ.

Question: Which “sk_ddG_kJ (SKEMPI experimental ΔΔG)” value does the source give for B16 here?
Answer: Its value is 4.52 kJ.

Question: With B17 as the molecule, how does the “sk_ddG_kJ (SKEMPI experimental ΔΔG)” value read?
Answer: The value was 5.65 kJ.

Question: For B18, which “sk_ddG_kJ (SKEMPI experimental ΔΔG)” value is on record?
Answer: Its value is 9.67 kJ.

Question: Which “sk_ddG_kJ (SKEMPI experimental ΔΔG)” value does the source give for B19 here?
Answer: Its value is -0.54 kJ.

test system: PPIs of the SKEMPI data set (by PDBID); assay: SKEMPI experimental ΔΔG, single mutations to alanine; format: binding; details: class by ΔΔG threshold 4.184 kJ/mol; ref SKEMPI

Question: For B1, which “sk_class (class of the SKEMPI experimental ΔΔG)” value is on record?
Answer: The value was “Neutral (neutral (little effect) 4.184 kJ/mol < ΔΔG > −4.184 kJ/mol)”.

Question: With B2 as the molecule, how does the “sk_class (class of the SKEMPI experimental ΔΔG)” value read?
Answer: Its value is “Positive (positive (a hot residue) ΔΔG ≥ 4.184 kJ/mol)”.

same assay, conditions: class of the SKEMPI experimental ΔΔG

Question: With B3 as the molecule, how does the sk_class read?
Answer: Its sk_class is “Neutral (neutral (little effect) 4.184 kJ/mol < ΔΔG > −4.184 kJ/mol)”.

Question: With B4 as the molecule, how does the sk_class read?
Answer: The sk_class was “Neutral (neutral (little effect) 4.184 kJ/mol < ΔΔG > −4.184 kJ/mol)”.

Question: With B5 as the molecule, how does the sk_class read?
Answer: Its sk_class is “Neutral (neutral (little effect) 4.184 kJ/mol < ΔΔG > −4.184 kJ/mol)”.

Question: With B6 as the molecule, how does the sk_class read?
Answer: The sk_class was “Neutral (neutral (little effect) 4.184 kJ/mol < ΔΔG > −4.184 kJ/mol)”.

Question: For B7, which sk_class is on record?
Answer: Its sk_class is “Positive (positive (a hot residue) ΔΔG ≥ 4.184 kJ/mol)”.

Question: With B8 as the molecule, how does the sk_class read?
Answer: The sk_class was “Neutral (neutral (little effect) 4.184 kJ/mol < ΔΔG > −4.184 kJ/mol)”.

Question: For B9, which sk_class is on record?
Answer: Its sk_class is “Neutral (neutral (little effect) 4.184 kJ/mol < ΔΔG > −4.184 kJ/mol)”.

Question: Which sk_class does the source give for B10 here?
Answer: The sk_class was “Neutral (neutral (little effect) 4.184 kJ/mol < ΔΔG > −4.184 kJ/mol)”.

Question: For B11, which sk_class is on record?
Answer: Its sk_class is “Neutral (neutral (little effect) 4.184 kJ/mol < ΔΔG > −4.184 kJ/mol)”.

Question: With B12 as the molecule, how does the sk_class read?
Answer: Its sk_class is “Neutral (neutral (little effect) 4.184 kJ/mol < ΔΔG > −4.184 kJ/mol)”.

Question: For B13, which sk_class is on record?
Answer: Its sk_class is “Neutral (neutral (little effect) 4.184 kJ/mol < ΔΔG > −4.184 kJ/mol)”.

Question: With B14 as the molecule, how does the sk_class read?
Answer: Its sk_class is “Neutral (neutral (little effect) 4.184 kJ/mol < ΔΔG > −4.184 kJ/mol)”.

Question: Which sk_class does the source give for B15 here?
Answer: Its sk_class is “Neutral (neutral (little effect) 4.184 kJ/mol < ΔΔG > −4.184 kJ/mol)”.

Question: For B16, which sk_class is on record?
Answer: Its sk_class is “Positive (positive (a hot residue) ΔΔG ≥ 4.184 kJ/mol)”.

Question: Which sk_class does the source give for B17 here?
Answer: Its sk_class is “Positive (positive (a hot residue) ΔΔG ≥ 4.184 kJ/mol)”.

Question: For B18, which sk_class is on record?
Answer: The sk_class was “Positive (positive (a hot residue) ΔΔG ≥ 4.184 kJ/mol)”.

Question: With B19 as the molecule, how does the sk_class read?
Answer: The sk_class was “Neutral (neutral (little effect) 4.184 kJ/mol < ΔΔG > −4.184 kJ/mol)”.
